Legend:
retinal microglia = assay: Bulk RNA-seq gene profiling of isolated retinal microglial cultures, with or without LPS; assay type: cell-based, mouse
Description: We performed RNA-seq using four Igfbpl1−/− mice retina and four WT mice retina. The raw data was quality controlled and aligned on Mus musculus (mouse) reference genome (GRCm38) with STAR v2.5.0a (PMID: 23104886), FeatureCount (v0.6.1) (PMID: 24227677) was used to count the number of read mapped to each gene. Transcripts Per Million (TPM) was calculated for each gene based on the length of the gene and reads mapped to that gene. Differential expression analysis between Igfbpl1^−/− and WT mice was performed using the DESeq2 R package (v1.22.2) (PMID: 25516281). gene set over representation analysis for the differentially expressed genes was performed with the same above described method. We also downloaded lists of genes with function related to “Microglia”, “Astroglia”, “neuron”, and “photoreceptor” from genecard (www.genecards.org) with relevance score>5, and determined the percentage of and calculated the proportion of differentially expressed genes in each of those gene lists. […]
To investigate if IGFBPL1 directly mediates microglial function, we studied gene profiling changes in isolated microglial cultures treated by IGFBPL1. Retinal microglia were purified from mice expressing green fluorescence protein (GFP) driven under a microglial specific promoter Cx3cr1 (Cx3cr1-Gfp) using fluorescence-activated cell sorting (FACS)^12. […]

DBA/2J mice = assay: DBA/2J chronic glaucoma mouse model, monthly intravitreal administration; assay type: in vivo; conditions: 10 m-old DBA/2J mice
Description: Adult (10-12 weeks old) male and female C57BL/6J (B6) (The Jackson Laboratory, 000664), Cx3cr1^GFP (The Jackson Laboratory, 005582), DBA/2J mice (The Jackson Laboratory, 000671) Igf1r^(lax) inducible knockout mice (The Jackson Laboratory, 012251) as well as Cx3cr1^tm2.1(cre/ERT2) mice were obtained from the Jackson Laboratory. Igf1r^(lax) mice were crossed with Cx3cr1^tm2.1(cre/ERT2) mice to generated Igf-1r specific knock out on microglia after 3 consecutive days injection of 100 mg/kg tamoxifen to mice. IGFBPL1 deficiency mice at a C57BL/6J genetic background (Knockout Mouse Project Repository, University of California at Davis) were used in following experiments. Mice of both genders were randomized into control and experimental groups. All experimental procedures and use of animals were approved and monitored by the Institute's Animal Care Committee and conform to the standards of the National Institute of Health and the Association for Research in Vision and Ophthalmology.
Adult mice were anesthetized by i.p. injection of ketamine (120 mg/kg)/xylazine (20 mg/kg) mixture using 25 G needle. […] Mice will be placed on a warm pad and monitored every 15 minutes until awake and fully sternal.
The adult mice were dark adapted in a dark adaptation chamber overnight before conducting ERG. […] The pSTR was measured from the baseline to the peak of the positive deflection. […]

B1: IGFBPL1: insulin-like growth factor binding protein like protein 1; recombinant protein (R&D system, 4130-BL) (protein)
chain: LGLRDAGRRHPECSPCQQDRCPAPSPCPAPWISARDECGCCARCLGAEGASCGGPVGSRCGPGLVCASRASGTAPEGTGLCVCAQRGAVCGSDGRSYSSICALRLRARHAPRAHHGHLHKARDGPCEFAPVVLMPPRDIHNVTGTQVFLSCEVKAVPTPVITWKKVKHSPEGTEGLEELPGDHVNIAVQVRGGPSDHETTSWILINPLRKEDEGVYHCHAANAIGEAQSHGTVTVLDLNRYKSLYSSVPGDLL
Reversal of LPS-induced microglial gene profile (bulk RNA-seq) (retinal microglia; IGFBPL1 added 6 hr after LPS stimulation): completely reverted LPS-induced microglial gene profile to the control level
Microglial gene profile versus vehicle controls (bulk RNA-seq) (retinal microglia; IGFBPL1 alone, no LPS): no different between cultures treated with IGFBPL1 alone and vehicle controls
Survived axon in optic nerve (DBA/2J mice; versus vehicle-treated group): significantly preserved
RGC density and pSTR amplitude (DBA/2J mice; after four monthly doses): effectively protect RGCs and functions
